Results on one molecule are retold here after US20230331827A1, “POTASSIUM CHANNEL INHIBITORS” (priority 2017, published 2023).

Where two headings read alike, the source gives them in different places.

Format in all cases: cell-based
For one assay, the target named is T1, huKv1.3 (Homo sapiens, UniProt P22001).
T1 construct: host or cells: CHO
Kind of assay: QPatch automated whole-cell patch-clamp, CHO cells stably expressing huKv1.3 (Example 8). To be noted: Kv1.3 channels, IgG KnotBody, Table 11A. How it is done: Knottin Kv 1.3 and ASIC1a blockers expressed in the KnotBody format (see examples 6 and 7) were tested for their ability to inhibit the function of the ion channel targets. The effect of these KnotBodies on cells expressing the human Kv 1.3 (huKv1.3) or human ASIC1a channels was assessed using QPatch automated whole-cell patch-clamp electrophysiology (Sophion).
For the testing of Kv1.3, CHO cells stably expressing huKv1.3 (Charles River Lab) were analysed using the QPatch electrophysiology assay in the presence or absence of the KnotBody fusions or the antibody isotypes (negative) controls. Internal and external physiological solutions were freshly prepared prior to the assay. The extracellular solution contained 145 mM NaCl, 4 mM KCl, 2 mM CaCl2, 1 mM MgCl2, 10 mM HEPES and 10 mM glucose; the pH was adjusted to 7.4 with NaOH; the osmolarity was ~ 305 mOsm/L. The intracellular solution contained: KF (120 mM), KCl (20 mM), HEPES (10 mM) and EGTA (10 mM); the pH was adjusted to 7.2 with KOH; osmolarity was ~ 320 mOsm/L.
A series of depolarising voltage (channel activating) pulses were used to monitor the channel currents upon adding control (extracellular solution) to define a control baseline of current activity. To these measured control currents ascending concentrations of KnotBodies or parental antibody isotypes (control molecules) were applied to the external bathing solution (2.2 µM - 0.5 nM, diluted in the extracellular solution). KnotBodies KB_A12 and KB_A07 (EETI-II fusions) were used as isotype controls for the testing. From a holding voltage of -80 mV a depolarising, activating voltage pulses of +30 or +80 mV were applied for 300 ms, every 5 or 10 seconds. The elicited, maximum outward current values measured during the activating step for each solution exchange period were averaged (n = 3 - 8 for each concentration applied) and plotted as concentration-response curves. KB_A07_ShK, KB_A12_ShK and KB_A07_Kaliotoxin (KTX) fusion proteins all inhibited the huKv1.3 currents in a concentration dependent manner with IC50S of approximately 20 nM, 40 nM and 900 nM respectively.
Background: Patch clamp records ionic current or voltage across a cell membrane.

The target of another assay is T2, human Kv1.3 (huKv1.3) (Homo sapiens, UniProt P22001).
T2 construct: host or cells: CHO
Kind of assay: QPatch automated patch-clamp, CHO cells stably expressing human Kv1.3 (Examples 19-21). How it is done:
The effect of these KnotBodies on cells expressing human Kv1.3 (huKv1.3) channel was assessed using the QPatch automated patch-clamp platform (Sophion, Ballerup, Denmark). For the testing of Kv1.3 ion channel currents, CHO cells stably expressing human Kv1.3 (GenBank accession number NM_002232.2; cell line catalogue number CT6133, Charles River Discovery, Cleveland, USA) were subjected to a QPatch electrophysiology assay in the presence or absence of the KnotBody fusions or the antibody isotypes (negative controls). Internal and external physiological solutions were freshly prepared prior to the assay. The extracellular solution contained 145 mM NaCl, 4 mM KC1, 2 mM CaC12, 1 mM MgC12, 10 mM HEPES and 10 mM glucose; the pH was adjusted to 7.4 with NaOH; the osmolarity was ~ 305 mOsm/L. The intracellular solution contained: KF (120 mM), KC1 (20 mM), HEPES (10 mM) EGTA (10 mM); the pH was adjusted to 7.2 with KOH; osmolarity was ~ 300 mOsm/L.
(§1) A series of depolarising voltage (channel activating) pulses were used to monitor the channel currents upon adding control (extracellular solution) to define a control baseline of current activity. To these measured control currents four, ascending concentrations of KnotBodies (including KB_A12_ShK and KB_A12_KTX as previously described in Example 8) or parental antibody isotypes (control molecules) were applied to the external bathing solution. KnotBodies KB_A12 and KB_A07 (EETI-II fusions) were used as isotype controls for the testing. From a holding voltage of -80 mV a depolarising, activating voltage pulses of +30 mV were applied for 300 ms, every 10 seconds. The elicited, maximum outward current values measured during the activating step for each solution exchange period, averaged (n = 3 - 6 for each concentration applied) and plotted as concentration-response curves (see FIG. 32). From these concentration-response curves IC50 values were calculated.
(§2) For the testing of Kv1.1 and Kv1.3, CHO-S expressing huKv1.1 (described above) or CHO cells stably expressing huKv1.3 (Charles River Lab) were analysed using the QPatch electrophysiology assay in the presence or absence of the KnotBody fusions. Internal and external physiological solutions were freshly prepared prior to the assay. The extracellular solution contained 145 mM NaCl, 4 mM KC1, 2 mM CaC12, 1 mM MgC12, 10 mM HEPES and 10 mM glucose; the pH was adjusted to 7.4 with NaOH; the osmolarity was ~ 305 mOsm/L. The intracellular solution contained: KF (120 mM), KC1 (20 mM), HEPES (10 mM) EGTA (10 mM); the pH was adjusted to 7.2 with KOH; osmolarity was ~ 300 mOsm/L.
as §1, with “(including previously described” for “(including”, “KB_A12_KTX” for “KB_A12_KTX as previously”, “[…]” for “+30 mV”, “33).” for “32).”, “calculated (see Table E20).” for “calculated.”
(§3) For the testing of Kv1.1 and Kv1.3, CHO-S expressing huKv1.1 (see Example 20 and below) or CHO cells stably expressing huKv1.3 (Charles River Lab) were analysed using the QPatch electrophysiology assay in the presence or absence of the KnotBody fusions - see details in Examples 19 and 20.

For a further assay, the target named is T3, human Kv1.1 (huKv1.1) (Homo sapiens, UniProt Q09470).
T3 construct: expressed in transfected cells; host or cells: Freestyle CHO-S
Kind of assay: QPatch automated patch-clamp, CHO-S cells expressing huKv1.1 (Examples 20-21). To be noted: four-point curves of FIG. 33, Table E20. As to the method:
1. The effect of these KnotBodies on cells expressing human Kv1.1 (huKv1.1) and Kv1.3 (huKv1.3) channels was assessed using QPatch automated patch-clamp platform (Sophion).
To generate huKv1.1 expressing cells, Freestyle CHO-S cells (Cat. no. R80007, Life Technologies, California, USA) were transfected with pINT50-Tr plasmid encoding huKv1.1 gene using the MaxCyte STX (MaxCyte) transfection system. In pINT50-Tr plasmid, huKv1.1 gene is under the control of a CMV promoter. 64 µg of the plasmid DNA were added to 400 µl of Freestyle CHO-S cells (at a density of 1 × 10^8 cells/ml) in Electroporation Buffer (GE Healthcare Life Sciences, Cat. no. EPB1) in an OC-400 processing assembly (MaxCyte). Following electroporation, the cells were transferred to a well of a 24-well plate containing 200 U/ml DNAse I (Sigma, D4263) and incubated for 20 minutes at 37° C. and 5% CO2. The cells were then transferred into a 100 ml shaker flask containing 20 ml of CD Opticho Media (Thermo Fisher Scientific, Cat.No 12681-011,) supplemented with 8 mM L-Glut (Thermo Fisher Scientific, cat. no. 25030-024). The cells were incubated for 24 hours at 37° C. and 5% CO2 (and 75% humidity and shaking at 800 rpm) prior to testing using automated patch clamp electrophysiology.
as §2
as §1, with “(including previously described” for “(including”, “KB_A12_KTX” for “KB_A12_KTX as previously”, “[…]” for “+30 mV”, “33).” for “32).”, “calculated (see Table E20).” for “calculated.”
as §3
In addition to the CHO-S transiently expressing huKv1.1 (described in Example 20), CHO-S cells with poly-clonal stable expression of huKv1.1 cells were also made and used in the QPatch electrophysiology assay. To generate the polyclonal stable huKv1.1 cells from the transiently expressing cells described in Example 20, after a 24 hour incubation period the selection antibiotic Puromycin (catalogue no. A1 1138-03, Life Technologies, California, USA) was added to culture media. Then, for the first 14 days puromycin was at 10 µg ml-1 media; at days 15-28 puromycin was at 20 µg ml-1 media. Cell cultures were seeded at 2.5 x 10^5 cells ml^-1 into fresh culture media and puromycin twice per week through this selection growth period. […]

T2 sequence (P22001 whole entry): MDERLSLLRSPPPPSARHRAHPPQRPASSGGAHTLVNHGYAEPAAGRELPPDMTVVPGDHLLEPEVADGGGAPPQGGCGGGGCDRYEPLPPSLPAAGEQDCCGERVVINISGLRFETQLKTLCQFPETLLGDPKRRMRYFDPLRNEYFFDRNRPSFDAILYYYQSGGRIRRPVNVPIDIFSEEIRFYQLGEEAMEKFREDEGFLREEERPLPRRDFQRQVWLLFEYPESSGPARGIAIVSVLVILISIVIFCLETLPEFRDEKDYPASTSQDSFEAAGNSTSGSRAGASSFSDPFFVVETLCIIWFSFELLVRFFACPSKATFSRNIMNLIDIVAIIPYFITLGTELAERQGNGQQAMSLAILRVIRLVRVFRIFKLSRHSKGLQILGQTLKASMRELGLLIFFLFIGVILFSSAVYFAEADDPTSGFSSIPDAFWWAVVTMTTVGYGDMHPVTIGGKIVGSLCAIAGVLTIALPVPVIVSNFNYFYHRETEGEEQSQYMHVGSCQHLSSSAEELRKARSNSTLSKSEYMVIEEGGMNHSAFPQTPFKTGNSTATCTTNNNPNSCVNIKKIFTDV
T1 sequence (P22001 whole entry): as above
T3 sequence (Q09470 whole entry): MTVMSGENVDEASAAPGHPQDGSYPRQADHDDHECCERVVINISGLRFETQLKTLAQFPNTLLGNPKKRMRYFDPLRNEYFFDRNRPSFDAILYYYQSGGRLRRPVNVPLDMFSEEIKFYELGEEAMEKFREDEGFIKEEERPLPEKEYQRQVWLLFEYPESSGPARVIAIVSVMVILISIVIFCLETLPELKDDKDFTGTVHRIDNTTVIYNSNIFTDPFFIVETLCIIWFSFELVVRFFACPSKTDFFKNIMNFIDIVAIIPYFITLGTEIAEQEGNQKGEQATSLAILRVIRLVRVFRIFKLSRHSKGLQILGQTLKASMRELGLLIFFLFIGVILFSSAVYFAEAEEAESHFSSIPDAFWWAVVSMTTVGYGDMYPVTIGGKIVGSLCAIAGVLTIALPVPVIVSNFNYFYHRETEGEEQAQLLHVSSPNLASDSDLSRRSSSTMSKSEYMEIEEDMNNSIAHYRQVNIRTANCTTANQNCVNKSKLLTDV

B1: KB_A12_KTX: kaliotoxin in VL CDR2 of KB_A12, IgG1 (antibody)
VH: EVQLVESGGGLVRPGGSLRLSCAASGFTFSSYAMSWVRQAPGKGLEWVSAISGSGGSTYYADSVKGRFTISRDNTKNSLYLQMTSLRADDTAFYYCVKDFGPGYGTGWFDYWGPGTLVTVSS
VL: QSVLTQPPSVSEAPRQRVTITCSGSSSNIGNNAVNWYQQLPGKAPKLLIYAAGRGVEINVKCSGSPQCLKPCKDAGMRFGKCMNRKCHCTPKANSGVSDRFSAAKSGTSASLAINGLRSEDEADYYCAAWDDSLNGYVFGTGTKLTVLGQP
What is called IC50 is the midpoint of a concentration-inhibition curve. On to B1, for which the concentration for half-maximal inhibition (IC50) with huKv1.3 is greater than 10000 nM; with human Kv1.3 (huKv1.3) (four-point curves of FIG. 33, Table E20, read-out: Kv1.3 IC50), 1540 nM; in the assay with human Kv1.3 (huKv1.3) (huKv1.3, four-point curves of FIG. 32, Table E19, read-out: IC50), 430 nM; in the assay with human Kv1.1 (huKv1.1), 4800 nM. Moreover, the Fold difference in the assay with human Kv1.3 (huKv1.3) (Kv1.1 IC50 over Kv1.3 IC50, Table E20) turned out to be 3.
